Test results as given in patent US20120195879A1 (published 2012).

Biological target: T1, keyhole limpet hemocyanin (multimeric high molecular weight KLH) (Megathura crenulata (keyhole limpet), UniProt Q10583 17-3414; Q10584 20-3421)
T1 construct: also called mcKLH; Multimeric KLH
Assay: SPR (BIAcore 2000), antibody captured on anti-human IgG Fc surface, multimeric KLH injected; apparent constants
Description: Multimeric high molecular weight keyhole limpet hemocyanin (KLH) was from Pierce (Rockford, Ill.). Anti-human IgG, Fcγ-specific antibody was from Jackson ImmunoResearch Laboratories, Inc. (West Grove, Pa.). BIACore 2000, research grade sensor chip CM5, surfactant P-20 (polyoxyethylenesorbitan), HBS-EP (10 mM HEPES, 0.15M NaCl, 3.4 mM EDTA, 0.005% P-20, pH 7.4), amine coupling reagents, 10 mM acetate, pH 4.5, and 10 mM glycine, pH 1.5 were from BIACore, Inc. (Piscataway, N.J.). Phosphate-buffered saline (PBS, 1×, no calcium chloride, no magnesium chloride) was from Invitrogen (Carlsbad, Calif.). Bovine serum albumin (BSA, fraction V, IgG free) was from Sigma (St. Louis, Mo.).
Anti-KLH antibody wase captured on individual flow cells, followed by injection of either sample buffer or KLH, ranging in concentration from 0.19-100 nM. To prepare dilutions of the multimeric high molecular weight KLH, an average molecular weight of 5,000,000 daltons was used. Following sample buffer or antigen injection, each surface was regenerated by two injections of 10 mM glycine, pH 1.5 to dissociate captured antibody from the immobilized anti-human Fc surfaces. BIAevaluation software was used to determine apparent kinetic parameters for binding of KLH to captured anti-KLH antibodies.

B1: anti-KLH antibody (human IgG1, clone 120.6.1) (antibody, V domains shown)
VH: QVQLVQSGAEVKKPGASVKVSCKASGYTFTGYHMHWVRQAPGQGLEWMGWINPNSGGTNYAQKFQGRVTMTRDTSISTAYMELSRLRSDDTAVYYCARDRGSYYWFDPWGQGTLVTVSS
VL: DIQMTQSPSSLSASVGDRVTITCRASQGIRNDLGWYQQKPGKAPKRLIYAASSLQSGVPSRFSGSGSGTEFTLTISSLQPEDFATYYCLQHNSYPLTFGGGTKVEIK
notes: also called IgG1 (120.6.1); anti-KLH 120.6.1
  Kd: 0.2 nM
  koff: 2.5e-05 s⁻¹
  kon: 120000 M⁻¹ s⁻¹
